According to US20110093983A1, “ALGAL GLYCEROL-3 PHOSPHATE ACYLTRANSFERASE” (National Research Council of Canada, priority 2008, published 2011):

Columns and labels:
yeast gat1 mutant [1] = experiment: Incorporation of fed EPA or DHA into TAGs and phospholipids of yeast gat1 mutant; format: cell-based, Saccharomyces cerevisiae; conditions: for mol % of FA in Phospholipids, DHA / mol % of FA in Phospholipids, EPA / mol % of FA in TAGS, DHA / mol % of FA in TAGS, EPA: 3-day induction
Method: Yeast cultures were grown at 28° C. in the presence of 2% (w/v) glucose and 1% (w/v) Tergitol NP-40 (Sigma, St. Louis, Mo., US). Expression of the transgene was induced at OD600 nm 0.2 to 0.3 by supplementing galactose to 2% (w/v). At that time, the appropriate FAs were added to a final concentration of 50 or 100 μM in the presence of 1% (w/v) Tergitol NP-40 (Sigma, St. Louis, Mo., US). Yeast cells (20 ml) were harvested after a 3-day incubation, total lipids from yeast homogenates were extracted using the procedure of Schneiter (2005). Separation of neutral lipids and polar lipids was performed by running the thin layer chromatography plates (Si 250-PA, Baker, Phillipsburg, N.J.) in a developing solvent of hexane: ether: acetic acid (70:30:1, v/v) and identified by co-migration with known standards. Spots corresponding to TAG and phospholipid were scraped off the TLC plates and were transmethylated with methanolic HCl and quantified by gas chromatography as described previously. (Zheng and Zou, 2001).
Yeast gat1 strain transformed with TpGPAT or empty vector pYES2.1 was grown in the presence of EPA or DHA, while being induced by galactose. Triacylglycerols (TAGS) and phospholipids from the 3-day culture were extracted and analyzed by gas chromatography for fatty acid composition. […] It was not clear if this were due to the low GPAT activity for these VLCPUFAs or the lack of EPA and DHA-CoA in the cells.

yeast gat1 mutant [2] = experiment: Lipidomic analysis of phospholipids from yeast gat1 transformed with TpGPAT or GAT1, fed EPA or DHA; format: cell-based, Saccharomyces cerevisiae; conditions: tandem mass spectrometer lipidomics
Excerpt: FIG. 4 graphically depicts the results of the lipidomic analysis (fatty acid composition) of the lipids from yeast gat1 mutants transformed with either TpGPAT1 or GAT1. Yeast cells expressing TpGPAT or yeast GAT1 were fed with EPA (20:5) or DHA (22:6) upon induction of the genes. Total lipids from the yeast cells were extracted and subjected to lipidomic analysis using a tandem mass spectrometer. The results are presented as the molar ratio of EPA- or DHA-containing phospholipids (PC, PE, PS, PI) in the total phospholipids.
To further determine the role of TpGPAT in the incorporation of VLGPUFAs into glycerolipids, yeast gat1 strain transformed with TpGPAT or GAT1 under the control of the GAL1 promoter was grown in the presence of EPA (20:5) or DHA (22:6) upon induction of the genes. Phospholipids were extracted and subjected to lipidomic analysis using a tandem mass spectrometer (testing conducted by the Kansas Lipidomics Research Center). […] It was thus concluded that TpGPAT has a role in controlling PUFA accumulation in glycerolipid.

Arabidopsis thaliana = experiment: Fatty acid and oil content analysis of T2 seeds from TpGPAT transgenic Arabidopsis; format: in vivo; conditions: transgenic Arabidopsis lines (GW), Napin promoter
Method: FIG. 5 graphically depicts the results of the analysis of the fatty acid 16:0 content of T2 seeds from TpGPAT transgenic Arabidopsis. Fatty acid analysis was performed on TpGPAT transformed Arabidopsis seeds. Fatty acid composition (as molar percentage) was determined in the seed oil extracted from 200 T2 seeds of 13 TpGPA:pSE transformed Arabidopsis lines (GW4-GW17). pSE129A empty plasmid transformed wild-type Arabidopsis was used as a control.
FIG. 7 graphically depicts the total oil content of TpGPAT transformed Arabidopsis seeds. Oil contents (as percentage of dry weight) were determined in 200 T2 seeds of the 13 TpGPA:pSE transformed Arabidopsis lines (GW4-12; GW14-17). Wild-type Arabidopsis was used as a control (Con).
The full length coding region of the TpGPAT gene was amplified using pfu DNA polymerase and primers designed with two restriction sites (KpnI and XbaI) added for subsequent cloning. Then, the PCR product was digested and inserted in a plant transformation vector (pSE129A) under the control of a seed-specific promoter (Napin). The binary vector was introduced by electroporation into Agrobacterium tumefaciens strain GV3101 containing helper plasmid pMP90 (Koncz and Schell, 1986). […]

Brassica napus = experiment: Fatty acid analysis of T1 seeds from TpGPAT transgenic Brassica napus; format: in vivo; conditions: 5 transgenic Brassica napus events; wild-type 4.27-4.64%
Method: FIG. 6 graphically depicts the results of the analysis of the fatty acid 16:0 content of T1 seeds from TpGPAT transgenic Brassica napus. Fatty acid analysis was performed on TpGPAT transformed B. napus seeds. Fatty acid composition (as molar percentage) was determined in the seed oil extracted from T1 seeds of five independent TpGPAT:pSE transformed Brassica napus events (GPAT1, 3, 4, 7 and 12). Wild-type B. napus was used as a control.
The full length coding region of the TpGPAT gene was amplified using pfu DNA polymerase and primers designed with two restriction sites (KpnI and XbaI) added for subsequent cloning. Then, the PCR product was digested and inserted in a plant transformation vector (pSE129A) under the control of a seed-specific promoter (Napin). The binary vector was introduced by electroporation into Agrobacterium tumefaciens strain GV3101 containing helper plasmid pMP90 (Koncz and Schell, 1986).
Brassica napus 5-day-old hypocotyls were also transformed with Agrobacterium containing the TpGPAT/pSE129A construct. Transgenic T0 plants were regenerated, selected for resistance to kanamycin and grown in soil. Individual plants were bagged to allow self-pollination. Presence of the TpGPAT and Kan genes in the resistant plants was verified by PCR with the appropriate primers in 18 independent events. T1 seeds from the first set of 5 transgenic events were harvested and analyzed. […]

B1: TpGPAT1: membrane-bound glycerol-3-phosphate acyltransferase from T. pseudonana, 674 amino acids, SEQ ID NO:2 (nucleotide SEQ ID NO:1) (protein, listed as Thalassiosira pseudonana)
chain: MGVEKKGTMMSELDYTKAQLAFFYIVVLLSLDMLNPVKIFLHVFPAIKSWHIATFAIACMSYIFIVNLRELLYFATKVFFHSILSIFFNDVTVVGRENIPSHGPVIFTSNHANQFMDGLMIMCTCQRTISYLVADKSWNRPIIGHLAWMMGGVPVKRAQDSACKGTGKISIDLNALAGSDAVINVVGKGTSFTSQIKAGDKIRLPNNAIGIKVESIESDESMSLKVEDGVAEVLSSHPFPEYVTYDILPRIDQKDVYQNVLEKLASGGTIGIFPEGGSHDRTDLLPLKVGVALIAYSELEKDGINVPIVPVGLNYFRAHRFRGKATVEFGSPTYIEPSTLADYKKGGADKRRVCNDLLARIENSMRSVIVSVPDFETLQTIHAARRLYRQDGRNETAEQRQDMGRRFAEGYKRVLLQLGGEPPEEWLSLQSRILAYQKELNELGIRDYQVVGLDHEEVELGSESQGHSKADTVLHRMNVFGHIVHLFVIAVLAALPAMLLNLPVGLASRIYSNRRRKVALAASKVKVKGYDVMLSERVLACIVLVPSLWVVYGLLLSLFTSLDGPSLAVCFTCFPLFSYWSIMATESGMVDIKDLRPYVMRMIPSARRRLAALPATRKALRSDLRAMIKKIGPSLGDIYYEKDLNWQKIQMETKRMSMEELDPAQKDEAAKKEE
mol % of FA in Phospholipids, DHA (yeast gat1 mutant [1]; feeding concentration 50 μM): 0.22 ± 0.03 mol %
mol % of FA in Phospholipids, EPA (yeast gat1 mutant [1]; feeding concentration 50 μM): 0.42 ± 0.01 mol %
mol % of FA in TAGS, DHA (yeast gat1 mutant [1]; feeding concentration 50 μM): 0.70 ± 0.06 mol %
mol % of FA in TAGS, EPA (yeast gat1 mutant [1]; feeding concentration 50 μM): 1.18 mol %
mol % of FA in Phospholipids, DHA (yeast gat1 mutant [1]; feeding concentration 100 μM): 0.34 ± 0.02 mol %
mol % of FA in Phospholipids, EPA (yeast gat1 mutant [1]; feeding concentration 100 μM): 0.85 ± 0.15 mol %
mol % of FA in TAGS, DHA (yeast gat1 mutant [1]; feeding concentration 100 μM): 1.10 ± 0.07 mol %
mol % of FA in TAGS, EPA (yeast gat1 mutant [1]; feeding concentration 100 μM): 3.38 ± 0.78 mol %
Impact on incorporation of LCPUFAs into TAG or phospholipids compared to empty vector control (yeast gat1 mutant [1]; yeast gat1 grown in presence of EPA or DHA, 3-day culture): did not have much impact
Molar percentage of DHA in phospholipids (yeast gat1 mutant [2]; yeast gat1 fed DHA (22:6)): 0.563%
Molar percentage of EPA in phospholipids (yeast gat1 mutant [2]; yeast gat1 fed EPA (20:5)): 3.696%
16:0 content of T2 seeds compared to non-transformed control (Arabidopsis thaliana): More than half of the identified transgenic lines (GW) showed an increase of 16:0
16:0 percentage in T1 seeds (Brassica napus): 4.64-6.67%
